Assays:
[1] = tested on: KorA WT (IncP-1 plasmid (expressed in E. coli)); test: EMSA
[2] = tested on: KorA Y84A (IncP-1 plasmid (expressed in E. coli)); test: EMSA

## korAp fragment (220 bp, EcoRI-cut pSTM12)
[1]
  K half: 300 nM
[2]
  K half: 200 nM

— publication PMC2680271
